Test results from PMC12173945, “Import mechanism of peroxisomal proteins with an N-terminal signal sequence” (Nature Cell Biology, 2025).

System: PEX7–GFP influx into YG hydrogel
Experiment: Influx of PEX7–GFP into YG hydrogel in the presence of PEX39 (Fig. 6f-i)
Type: biochemical, yeast
Details: for Percent PEX7-GFP influx (+ PTS2 peptide + PEX5-21) / Percent PEX7-GFP influx (+ PTS2 peptide + PEX5S) / Percent PEX7-GFP influx: 60 min; for Percent PEX7-GFP influx: PEX7-GFP without PTS2 peptide/PEX5
Protocol: Fig. 6 PEX39 can extract PEX7 from the YG phase. a, YG hydrogels were prepared in a glass-bottomed dish and pre-equilibrated with PEX7–GFP. PEX39 was then added to the buffer and a point-scanning confocal microscope was used to follow the PEX7–GFP fluorescence over time. b, PEX7–GFP signal in the gel over time at the indicated molar ratios of wild-type PEX39 (relative to PEX7). The mean (bold line) and range (shading) of three experiments are shown. c, As in b using a fourfold excess of wild-type (WT) PEX39 or mutants harbouring alanines in place of the APH (∆APH), the RPWE motif (∆RPWE) or both (∆APH + ∆RPWE). d, As in b using PEX7–GFP or PEX5–GFP and a fourfold excess of wild-type PEX39. e, As in b using a fourfold excess of PTS2 peptide and the PEX7-binding chimaeric receptor PEX5-21 (left) or PTS2 peptide and the non-PEX7-binding receptor isoform PEX5S (right). Wild-type PEX39 was titrated as indicated. f, YG hydrogel droplets were incubated with PEX7–GFP in the presence of PEX39. The effect of PEX39 on the influx of PEX7–GFP into the gel was then assessed using a point-scanning confocal microscope. g, PEX7–GFP influx in the presence of the indicated molar ratios of wild-type PEX39 (relative to PEX7) with or without a fourfold excess of PTS2 peptide and either PEX5S or PEX5-21. The mean (bars) and individual values (circles) of three experiments are shown. h, As in g using PEX7–GFP or PEX5–GFP and the indicated molar ratios of wild-type PEX39. i, As in g using wild-type PEX39 or the indicated mutants. Source numerical data are provided. Source data
A solution of the purified wild-type YG-domain polypeptide (or the variant lacking the KPWE motif) was concentrated to 2 mM in 50 mM HEPES·NaOH pH 7.8 at RT, 2 M urea and 2 mM TCEP. Aliquots of 2 µl were then spotted on the bottom of multiple wells of a 96-well glass-bottomed plate (Cellvis, P96-1.5H-N), which was then sealed with a gas-impermeable AlumaSeal II film (Hampton Research, HR8-069) to prevent desiccation and incubated at RT for 24 h. Before each assay, the resulting gels were equilibrated overnight at RT in a 100-fold excess of Assay Buffer (25 mM HEPES·NaOH pH 7.8 at RT, 150 mM NaCl and 1 mM TCEP). A 0.5 µM solution of fluorescently labelled protein in Assay Buffer was then added to the samples, with or without additional components at the concentrations indicated in the text, and incubated at RT. Gels were imaged at the times indicated in the text using a Nikon A1R point-scanning confocal system consisting of an inverted Nikon Eclipse Ti microscope and a Nikon ×20 0.75 NA Plan Apo air objective. The objective was centred on the gel edge and focus was maintained 5 µm above the glass surface using the Nikon Perfect Focus System. Fluorescence was excited through a 405/488/561/647 quad-band dichroic (Chroma), using a 488-nm solid-state laser (Coherent) and a galvano scanner. A 50-nm emission band was collected on a gallium arsenide phosphide detector, using an ET525/50m (525 ± 25 nm) single-band bandpass filter (Chroma) and a pinhole dilated to 0.9 Airy units. Images were acquired using the Nikon NIS-Elements software with a pixel size of 1 µm and a 12-bit digitizer. Imaging parameters were configured to maximize the SNR while avoiding saturation. All samples intended to be compared were imaged using identical acquisition settings.

B1: PEX39 (WT): PEX39 from S. cerevisiae (GenBank accession no. NP_012546.4) (protein)
chain: MAAGGELSYEELLDHILNNKPIPNIVEVPNVTLDEGLASTPSLRPRPRPWEGQLQHQSHQGSLDKPNISLDIDQESLEGMTSLTRLSECYDIQSKLQINDSDNDNDDNNNDNNKGDGNDDDNNTVTANPTAR
modifications: left off: GST, N-terminal, cleaved
- Effect on influx of PEX7–GFP into YG hydrogel (PEX7–GFP alone or with PTS2 peptide and PEX5S): blocked the influx of PEX7–GFP alone as well as PEX7–GFP in the presence of a PTS2 peptide and PEX5S
- Effect on influx of PEX7–GFP into YG hydrogel, PEX5-21 complex (PEX7–GFP in complex with PTS2 peptide and PEX5-21): much less inhibitory
- Percent PEX7-GFP influx (+ PTS2 peptide + PEX5-21) (PEX39 1×, replicate 1): 66.880%
- Percent PEX7-GFP influx (+ PTS2 peptide + PEX5-21) (PEX39 1×, replicate 2): 83.899%
- Percent PEX7-GFP influx (+ PTS2 peptide + PEX5-21) (PEX39 1×, replicate 3): 114.523%
- Percent PEX7-GFP influx (+ PTS2 peptide + PEX5S) (PEX39 1×, replicate 1): 23.191%
- Percent PEX7-GFP influx (+ PTS2 peptide + PEX5S) (PEX39 1×, replicate 2): 21.558%
- Percent PEX7-GFP influx (+ PTS2 peptide + PEX5S) (PEX39 1×, replicate 3): 32.481%
- Percent PEX7-GFP influx (PEX39 1×, replicate 1): 49.645%
- Percent PEX7-GFP influx (PEX39 1×, replicate 2): 60.527%
- Percent PEX7-GFP influx (PEX39 1×, replicate 3): 62.401%
- Percent PEX7-GFP influx (+ PTS2 peptide + PEX5-21) (PEX39 2×, replicate 1): 50.795%
- Percent PEX7-GFP influx (+ PTS2 peptide + PEX5-21) (PEX39 2×, replicate 2): 68.223%
- Percent PEX7-GFP influx (+ PTS2 peptide + PEX5-21) (PEX39 2×, replicate 3): 111.257%
- Percent PEX7-GFP influx (+ PTS2 peptide + PEX5S) (PEX39 2×, replicate 1): 5.154%
- Percent PEX7-GFP influx (+ PTS2 peptide + PEX5S) (PEX39 2×, replicate 2): 5.013%
- Percent PEX7-GFP influx (+ PTS2 peptide + PEX5S) (PEX39 2×, replicate 3): 4.961%
- Percent PEX7-GFP influx (PEX39 2×, replicate 1): 14.576%
- Percent PEX7-GFP influx (PEX39 2×, replicate 2): 15.433%
- Percent PEX7-GFP influx (PEX39 2×, replicate 3): 14.730%
- Percent PEX7-GFP influx (+ PTS2 peptide + PEX5-21) (PEX39 4×, replicate 1): 53.842%
- Percent PEX7-GFP influx (+ PTS2 peptide + PEX5-21) (PEX39 4×, replicate 2): 47.057%
- Percent PEX7-GFP influx (+ PTS2 peptide + PEX5-21) (PEX39 4×, replicate 3): 58.495%
- Percent PEX7-GFP influx (+ PTS2 peptide + PEX5S) (PEX39 4×, replicate 1): 2.693%
- Percent PEX7-GFP influx (+ PTS2 peptide + PEX5S) (PEX39 4×, replicate 2): 2.263%
- Percent PEX7-GFP influx (+ PTS2 peptide + PEX5S) (PEX39 4×, replicate 3): 2.329%
- Percent PEX7-GFP influx (PEX39 at 4× molar ratio, replicate 1): 7.357%
- Percent PEX7-GFP influx (PEX39 at 4× molar ratio, replicate 2): 5.802%
- Percent PEX7-GFP influx (PEX39 at 4× molar ratio, replicate 3): 7.696%
